Common to all, as to assay: cell-based or functional assay
For test [1], the target named is T1, V5-, His-tagged recombinant human PCSK9 protein (human, UniProt Q8NBP7 31-692).
The target in test [2] is T1, V5-, His-tagged recombinant human PCSK9 …. This is another data set of the same source.
For test [3] the target is unchanged. The source holds these as a separate data set.
For test [4] the target is unchanged. The source holds these as a separate data set.
Test [5] has the same target. This is another data set of the same source.

Residue numbers refer to the chain shown, from its start. Read-outs that look alike come from different tables or passages of the source.

T1 sequence (Q8NBP7 31-692 limits assumed): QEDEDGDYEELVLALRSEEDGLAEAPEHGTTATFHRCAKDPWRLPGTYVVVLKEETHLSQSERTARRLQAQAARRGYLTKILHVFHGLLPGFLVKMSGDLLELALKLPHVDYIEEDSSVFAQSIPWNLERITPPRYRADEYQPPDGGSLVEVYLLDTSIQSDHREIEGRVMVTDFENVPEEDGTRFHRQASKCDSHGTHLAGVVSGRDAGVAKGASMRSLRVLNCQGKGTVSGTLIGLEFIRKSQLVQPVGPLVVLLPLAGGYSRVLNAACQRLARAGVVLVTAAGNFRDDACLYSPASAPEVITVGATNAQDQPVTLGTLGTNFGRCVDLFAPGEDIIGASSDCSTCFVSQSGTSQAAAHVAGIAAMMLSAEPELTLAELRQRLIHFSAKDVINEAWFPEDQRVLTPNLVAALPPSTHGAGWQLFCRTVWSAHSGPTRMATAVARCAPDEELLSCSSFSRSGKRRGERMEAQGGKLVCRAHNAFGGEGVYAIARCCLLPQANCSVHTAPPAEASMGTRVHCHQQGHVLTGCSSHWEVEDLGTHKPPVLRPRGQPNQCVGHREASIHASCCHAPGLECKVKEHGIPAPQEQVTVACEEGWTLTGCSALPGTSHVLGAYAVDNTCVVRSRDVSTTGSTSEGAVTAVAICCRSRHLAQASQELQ

B1: 3CX2A06 (Fab, V domains shown)
VH: QVQLVQSGAEVKKPGESLKISCKGSGYSFSNFWIAWVRQMPGKGLEWMGIIDPSDSWTRYSPSFQGQVTISADKSISTAYLQWSSLKASDTAMYYCARGDGQDFDNWGQGTLVTVSS
VL: DIQMTQSPSSLSASVGDRVTITCRASQNINSYLNWYQQKPGKAPKLLIYAASSLQSGVPSRFSGSGSGTDFTLTISSLQPEDFAVYYCLQNYDLPNTFGQGTKVEIKR
For B1, in test [1], the “IC50 for reversing the PCSK9-dependent loss of cellular diI-LDL uptake (Exopolar assay; Fab titrated against PCSK9 fixed at 25 µg/ml)” value was determined as 107 nM.

B2: 3CX3D02 (Fab, V domains shown)
VH: QVQLVQSGAEVKKPGESLKISCKGSGYSFTNSWIGWVRQMPGKGLEWMGIIYPSDSYTIYSPSFQGQVTISADKSISTAYLQWSSLKASDTAMYYCARGGGYYYALMDVWAQGTLVTVSS
VL: B1 VL with N28T, N30S, S31T, Y32W, V85T, N91D, Y92S, D93S, N96L
In the case of B2, the “IC50 for reversing the PCSK9-dependent loss of cellular diI-LDL uptake (Exopolar assay; Fab titrated against PCSK9 fixed at 25 µg/ml)” value in test [2] was 269 nM.

B3: 3CX4B08 (Fab, V domains shown)
VH: QVQLVESGGGLVQPGGSLRLSCAASGFTFSNYTMNWVRQAPGKGLEWVSFISSSSSETYYADSVKGRFTISRDNSKNTLYLQMNSLRAEDTAVYYCARGYGDMVDLWGQGTLVTVSS
VL: DIELTQPPSVSVAPGQTARISCSGDSIPTYYVAWYQQKPGQAPVLVIYSDTDRPSGIPERFSGSNSGNTATLTISGTQAEDEADYYCQSFDNHGYHVFGGGTKLTVLG
Regarding B3, in test [3], the “IC50 for reversing the PCSK9-dependent loss of cellular diI-LDL uptake (Exopolar assay; Fab titrated against PCSK9 fixed at 25 µg/ml)” value worked out at 127 nM.

B4: 3BX5C01 (Fab, V domains shown)
VH: QVQLVQSGAEVKKPGESLKISCKGSGYSFTSYGISWVRQMPGKGLEWMGMIDPSDSFTTYSPSFQGQVTISADKSISTAYLQWSSLKASDTAMYYCARGYYFTYALQPMDHWGQGTLVTVSS
VL: DIELTQPPSVSVAPGQTARISCSGDNLRDYIVHWYQQKPGQAPVLVIYDDSNRPSGIPERFSGSNSGNTATLTISGTQAEDEADYYCGFDNGGDIDVFGGGTKLTVLG
Regarding B4, in test [4], the “IC50 for reversing the PCSK9-dependent loss of cellular diI-LDL uptake (Exopolar assay; Fab titrated against PCSK9 fixed at 25 µg/ml)” value is 1250 nM.

B5: 1CX1G08 (Fab, V domains shown)
VH: QVQLVESGGGLVQPGGSLRLSCAASGFTFSDYWVSWVRQAPGKGLEWVSFISYDGSSTYYADSVKGRFTISRDNSKNTLYLQMNSLRAEDTAVYYCARTYFEGVDVWGQGTLVTVSS
VL: DIELTQPPSVSVAPGQTARISCSGDNIGTYYVHWYQQKPGQAPVLVIYDDSNRPSGIPERFSGSNSGNTATLTISGTQAEDEADYYCGTWDNTSFNLVFGGGTKLTVLG
For the molecule B5, the “IC50 for reversing the PCSK9-dependent loss of cellular diI-LDL uptake (Exopolar assay; Fab titrated against PCSK9 fixed at 25 µg/ml)” value in test [5] worked out at 267 nM.

The record behind these values is patent publication US20120082680A1 (Merck Sharp & Dohme, published 2012).
